Data on eight molecules can be found in patent US20180071403A1 (Daiichi Sankyo, published 2018).

For experiment [1], the target named is T1, human B7-H3 variant 1 (human, UniProt Q5ZPR3 27-534).
T1 construct: also called 4Ig-B7-H3
T1 sequence: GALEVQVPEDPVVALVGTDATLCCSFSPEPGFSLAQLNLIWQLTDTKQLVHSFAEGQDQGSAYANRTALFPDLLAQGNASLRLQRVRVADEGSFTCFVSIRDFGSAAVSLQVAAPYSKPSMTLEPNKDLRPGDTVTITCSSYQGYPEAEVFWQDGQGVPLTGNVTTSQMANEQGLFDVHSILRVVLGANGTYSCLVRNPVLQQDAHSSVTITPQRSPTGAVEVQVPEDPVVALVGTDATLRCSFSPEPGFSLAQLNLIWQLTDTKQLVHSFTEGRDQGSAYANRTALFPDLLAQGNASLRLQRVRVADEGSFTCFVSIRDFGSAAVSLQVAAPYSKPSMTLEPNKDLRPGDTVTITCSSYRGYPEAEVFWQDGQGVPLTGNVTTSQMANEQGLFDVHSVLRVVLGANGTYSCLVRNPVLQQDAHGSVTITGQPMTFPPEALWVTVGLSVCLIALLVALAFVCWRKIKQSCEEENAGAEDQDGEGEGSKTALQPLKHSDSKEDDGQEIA
The experiment can be described thus: flow cytometry, M30 at 10 µg/mL on CCRF-CEM clones transfected with B7-H3 variant 1, fluorescein-labelled anti-mouse IgG.
Protocol: Flow cytometry was used for confirming B7-H3 expression in each recovered clone. Specifically, each recovered clone was washed twice with PBS containing 5% FBS, thereafter suspended by the addition of PBS containing 5% FBS and 10 μg/mL M30, and left standing at 4° C. for 30 minutes. […] The clone was washed twice with PBS containing 5% FBS, thereafter resuspended in PBS containing 5% FBS, and detected by using a flow cytometer (FC500: Beckman Coulter, Inc.).

The target in experiment [2] is CD33 (UniProt P20138 18-364, limits assumed). The experiment can be described thus: cell-based or functional assay.
Experiment [3] deals with T2, CD30 (UniProt P28908 19-595, limits assumed).
T2 sequence (looked up): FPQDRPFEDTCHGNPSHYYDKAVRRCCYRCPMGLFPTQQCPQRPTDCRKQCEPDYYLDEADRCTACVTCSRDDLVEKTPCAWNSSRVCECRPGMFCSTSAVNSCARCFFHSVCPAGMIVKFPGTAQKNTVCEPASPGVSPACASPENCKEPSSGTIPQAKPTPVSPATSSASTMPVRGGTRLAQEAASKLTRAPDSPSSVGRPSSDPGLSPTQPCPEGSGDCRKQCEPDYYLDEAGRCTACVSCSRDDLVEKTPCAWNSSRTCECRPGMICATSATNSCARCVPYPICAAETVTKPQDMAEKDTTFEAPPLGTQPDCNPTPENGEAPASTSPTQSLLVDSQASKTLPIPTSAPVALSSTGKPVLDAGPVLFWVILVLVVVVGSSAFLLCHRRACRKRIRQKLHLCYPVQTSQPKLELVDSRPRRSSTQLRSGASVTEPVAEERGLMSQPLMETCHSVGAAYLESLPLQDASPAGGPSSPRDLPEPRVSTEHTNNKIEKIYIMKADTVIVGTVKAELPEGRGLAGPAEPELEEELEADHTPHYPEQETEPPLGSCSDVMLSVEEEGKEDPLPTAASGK
The experiment can be described thus: cell-based or functional assay.

Experiment [4] addresses T1, human B7-H3 variant 1. The experiment can be described thus: cell-based or functional assay.

Sequence of CD33 (P20138 18-364 limits assumed): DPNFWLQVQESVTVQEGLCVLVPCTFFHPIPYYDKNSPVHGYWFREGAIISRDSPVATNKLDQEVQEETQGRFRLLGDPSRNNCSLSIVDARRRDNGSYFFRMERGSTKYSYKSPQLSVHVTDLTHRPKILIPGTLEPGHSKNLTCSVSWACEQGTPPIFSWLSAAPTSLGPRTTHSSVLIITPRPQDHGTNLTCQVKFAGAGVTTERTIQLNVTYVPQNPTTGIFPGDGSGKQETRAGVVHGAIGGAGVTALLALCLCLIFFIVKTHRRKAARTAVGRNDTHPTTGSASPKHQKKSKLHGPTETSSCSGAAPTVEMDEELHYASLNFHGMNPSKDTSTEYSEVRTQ

B1: M30 antibody (antibody, mouse IgG2a, kappa, V domains shown)
VH: EVQLQQSGPELVKPGASVKMSCKASGYTFTNYVMHWVKQKPGQGLEWIGYINPYNDDVKYNEKFKGKATQTSDKSSSTAYMELSSLTSEDSAVYYCARWGYYGSPLYYFDYWGQGTTLTVSS
VL: QIVLSQSPTILSASPGEKVTMTCRASSRLIYMHWYQQKPGSSPKPWIYATSNLASGVPARFSGSGSGTSYSLTISRVEAEDAATYYCQQWNSNPPTFGTGTKLELKR
notes: Mouse monoclonal anti-B7-H3 antibody from hybridoma M30
Consider B1, for which the binding result in experiment [1] is reported as “binds”.

B2: Antibody-drug conjugate (10) (antibody, V domains shown)
VH: EVQLVQSGAEVKKPGSSVKVSCKASGYTITDSNIHWVRQAPGQSLEWIGYIYPYNGGTDYNQKFKNRATLTVDNPTNTAYMELSSLRSEDTAFYYCVNGNPWLAYWGQGTLVTVSS
VL: DIQLTQSPSTLSASVGDRVTITCRASQSLDNYGIRFLTWFQQKPGKAPKLLMYAASNQGSGVPSRFSGSGSGTEFTLTISSLQPDDFATYYCQQTKEVPWSFGQGTKVEVKR
modifications: drug-linker -(Succinimid-3-yl-N)-CH2CH2CH2CH2CH2-C(=O)-DGGFG-NH-CH2CH2CH2-C(=O)-(NH-DX) (exatecan) bound by thioether at reduced hinge disulfide cysteines (positions not given); average 6.6 drug molecules per antibody
Take B2: the “IC50, cytotoxic effect (cell growth inhibition, CellTiter-Glo) on HL-60 cells” value in experiment [2] was less than 1 nM.

B3: Antibody-drug conjugate (7) (antibody, V domains shown)
VH: QIQLQQSGPEVVKPGASVKISCKASGYTFTDYYITWVKQKPGQGLEWIGWIYPGSGNTKYNEKFKGKATLTVDTSSSTAFMQLSSLTSEDTAVYFCANYGNYWFAYWGQGTQVTVSA
VL: DIVLTQSPASLAVSLGQRATISCKASQSVDFDGDSYMNWYQQKPGQPPKVLIYAASNLESGIPARFSGSGSGTDFTLNIHPVEEEDAATYYCQQSNQDPWTFGGGTKLEIKR
modifications: drug-linker -(Succinimid-3-yl-N)-CH2CH2CH2CH2CH2-C(=O)-DGGFG-NH-CH2CH2CH2-C(=O)-(NH-DX) (exatecan) bound by thioether at reduced hinge disulfide cysteines (positions not given); average 4.6 drug molecules per antibody
In the case of B3, the “IC50, anticellular effect (cell growth inhibition, CellTiter-Glo) on SR cells” value in experiment [3] was less than 0.01 nM.

B4: Antibody-drug conjugate (24) (antibody, V domains shown)
VH: B3 VH
VL: B3 VL
modifications: drug-linker -(Succinimid-3-yl-N)-CH2CH2CH2CH2CH2-C(=O)-DGGFG-(NH-DX) (exatecan) bound by thioether at reduced hinge disulfide cysteines (positions not given); average 2.9 drug molecules per antibody
For the molecule B4, in experiment [3], the “IC50, anticellular effect (cell growth inhibition, CellTiter-Glo) on SR cells” value was less than 0.01 nM.

B5: Antibody-drug conjugate (8) (antibody, V domains shown)
VH: B3 VH
VL: B3 VL
modifications: drug-linker -(Succinimid-3-yl-N)-CH2CH2CH2CH2CH2-C(=O)-DGGFG-NH-CH2CH2CH2-C(=O)-(NH-DX) (exatecan) bound by thioether at reduced hinge disulfide cysteines (positions not given); average 7.9 drug molecules per antibody
As to B5, the “IC50, anticellular effect (cell growth inhibition, CellTiter-Glo) on SR cells” value in experiment [3] was less than 0.01 nM.

B6: Antibody-drug conjugate (25) (antibody, V domains shown)
VH: B3 VH
VL: B3 VL
modifications: drug-linker -(Succinimid-3-yl-N)-CH2CH2CH2CH2CH2-C(=O)-DGGFG-(NH-DX) (exatecan) bound by thioether at reduced hinge disulfide cysteines (positions not given); average 4.8 drug molecules per antibody
Consider B6, for which the “IC50, anticellular effect (cell growth inhibition, CellTiter-Glo) on SR cells” value in experiment [3] was less than 0.01 nM.

B7: Antibody-drug conjugate (6) (antibody, human IgG1, kappa, V domains shown)
VH: QVQLVQSGAEVKKPGSSVKVSCKASGYTFTNYVMHWVRQAPGQGLEWMGYINPYNDDVKYNEKFKGRVTITADESTSTAYMELSSLRSEDTAVYYCARWGYYGSPLYYFDYWGQGTLVTVSS
VL: EIVLTQSPATLSLSPGERATLSCRASSRLIYMHWYQQKPGQAPRPLIYATSNLASGIPARFSGSGSGTDFTLTISSLEPEDFAVYYCQQWNSNPPTFGQGTKVEIKR
modifications: drug-linker -(Succinimid-3-yl-N)-CH2CH2CH2CH2CH2-C(=O)-DGGFG-NH-CH2CH2CH2-C(=O)-(NH-DX) (exatecan) bound by thioether at reduced hinge disulfide cysteines (positions not given); average 6.2 drug molecules per antibody
Take B7: the “IC50, anticellular effect (cell growth inhibition, CellTiter-Glo) on CEM_V1_3.1_2 cells” value in experiment [4] was less than 0.1 nM.

B8: Antibody-drug conjugate (23) (antibody, human IgG1, kappa, V domains shown)
VH: B7 VH
VL: B7 VL
modifications: drug-linker -(Succinimid-3-yl-N)-CH2CH2CH2CH2CH2-C(=O)-DGGFG-(NH-DX) (exatecan) bound by thioether at reduced hinge disulfide cysteines (positions not given); average 6.6 drug molecules per antibody
For the molecule B8, the “IC50, anticellular effect (cell growth inhibition, CellTiter-Glo) on CEM_V1_3.1_2 cells” value in experiment [4] was less than 0.1 nM.
